Measured values reported in PMC5105069, “Structural assemblies of the di- and oligomeric G-protein coupled receptor TGR5 in live cells: an MFIS-FRET and integrative modelling study” (Scientific Reports, 2016).

B1: TGR5 wt fused to GFP or mCherry (TGR5 wt-GFP and TGR5 wt-mCherry), Q8TDU6 1-330 (receptor)
chain: MTPNSTGEVPSPIPKGALGLSLALASLIITANLLLALGIAWDRRLRSPPAGCFFLSLLLAGLLTGLALPTLPGLWNQSRRGYWSCLLVYLAPNFSFLSLLANLLLVHGERYMAVLRPLQPPGSIRLALLLTWAGPLLFASLPALGWNHWTPGANCSSQAIFPAPYLYLEVYGLLLPAVGAAAFLSVRVLATAHRQLQDICRLERAVCRDEPSALARALTWRQARAQAGAMLLFGLCWGPYVATLLLSVLAYEQRPPLGPGTLLSLLSLGSASAAAVPVAMGLGDQRYTAPWRAAAQRCLQGLWGRASRDSPGPSIAYHPSSQSSVDLDLN
B2: TGR5 Y111A fused to GFP or mCherry (receptor, UniProt Q8TDU6 1-330, looked up)
chain: MTPNSTGEVPSPIPKGALGLSLALASLIITANLLLALGIAWDRRLRSPPAGCFFLSLLLAGLLTGLALPTLPGLWNQSRRGYWSCLLVYLAPNFSFLSLLANLLLVHGERAMAVLRPLQPPGSIRLALLLTWAGPLLFASLPALGWNHWTPGANCSSQAIFPAPYLYLEVYGLLLPAVGAAAFLSVRVLATAHRQLQDICRLERAVCRDEPSALARALTWRQARAQAGAMLLFGLCWGPYVATLLLSVLAYEQRPPLGPGTLLSLLSLGSASAAAVPVAMGLGDQRYTAPWRAAAQRCLQGLWGRASRDSPGPSIAYHPSSQSSVDLDLN
notes: TGR5 (GPBAR-1, M-BAR) with Y111A in the ERY motif; Two differently tagged copies (GFP donor, mCherry acceptor), co-expressed; Each copy carries only one fluorescent protein; also called Y111A variant; source: HEK293, transiently transfected, in live cells; not shown: GFP, C-terminal, kept; mCherry, C-terminal, kept
B3: TGR5 Y111F fused to GFP or mCherry (receptor, UniProt Q8TDU6 1-330, looked up)
chain: MTPNSTGEVPSPIPKGALGLSLALASLIITANLLLALGIAWDRRLRSPPAGCFFLSLLLAGLLTGLALPTLPGLWNQSRRGYWSCLLVYLAPNFSFLSLLANLLLVHGERFMAVLRPLQPPGSIRLALLLTWAGPLLFASLPALGWNHWTPGANCSSQAIFPAPYLYLEVYGLLLPAVGAAAFLSVRVLATAHRQLQDICRLERAVCRDEPSALARALTWRQARAQAGAMLLFGLCWGPYVATLLLSVLAYEQRPPLGPGTLLSLLSLGSASAAAVPVAMGLGDQRYTAPWRAAAQRCLQGLWGRASRDSPGPSIAYHPSSQSSVDLDLN
notes: TGR5 (GPBAR-1, M-BAR) with Y111F in the ERY motif; Two differently tagged copies (GFP donor, mCherry acceptor), co-expressed; Each copy carries only one fluorescent protein; also called Y111F variant; source: HEK293, transiently transfected, in live cells; not shown: GFP, C-terminal, kept; mCherry, C-terminal, kept

Experiments:
[1] = biological target: T1, TGR5 wt fused to GFP or mCherry (TGR5 wt-GFP and TGR5 wt-mCherry), Q8TDU6; assay: FRET or BRET; MFIS-FRET in live HEK293 cells; GFP (donor) and mCherry (acceptor) on the C-terminus of TGR5; acceptor titration up to donor:acceptor 1:40; total TGR5 0.5-13 uM; also before and after 10 uM taurocholate (no change); KD2 is of the step tetramer to dimers, modelled by a dimer/tetramer simulation of E_mean against the donor-acceptor ratio with KD1 of the dimer fixed to 10 nM; settings: remark: other sources report otherwise
T1 chain: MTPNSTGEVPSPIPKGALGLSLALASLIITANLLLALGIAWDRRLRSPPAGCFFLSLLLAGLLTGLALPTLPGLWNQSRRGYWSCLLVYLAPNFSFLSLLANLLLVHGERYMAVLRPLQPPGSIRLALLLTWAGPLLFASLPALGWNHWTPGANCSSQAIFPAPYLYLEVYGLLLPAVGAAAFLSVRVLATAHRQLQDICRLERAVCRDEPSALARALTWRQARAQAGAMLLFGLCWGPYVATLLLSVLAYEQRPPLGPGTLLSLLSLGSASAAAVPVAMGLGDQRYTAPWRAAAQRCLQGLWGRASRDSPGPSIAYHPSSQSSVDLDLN

[2] = biological target: the molecule itself; assay: as above

| Binder | KD2 (tetramer to dimers, modeled) [1] [nM] | stoichiometry N [1] | stoichiometry N [2] |
| --- | --- | --- | --- |
| B1 | 70 | 4 | – |
| B2 | – | – | 2 |
| B3 | – | – | 4 |
